molecular target: hMRP5-Δ1-94-8xHis (human, UniProt O15440 95-1437, RED-tris-NTA 2nd Generation dye on the His tag); assay: MST
Sequence (O15440 95-1437, stated change not applied): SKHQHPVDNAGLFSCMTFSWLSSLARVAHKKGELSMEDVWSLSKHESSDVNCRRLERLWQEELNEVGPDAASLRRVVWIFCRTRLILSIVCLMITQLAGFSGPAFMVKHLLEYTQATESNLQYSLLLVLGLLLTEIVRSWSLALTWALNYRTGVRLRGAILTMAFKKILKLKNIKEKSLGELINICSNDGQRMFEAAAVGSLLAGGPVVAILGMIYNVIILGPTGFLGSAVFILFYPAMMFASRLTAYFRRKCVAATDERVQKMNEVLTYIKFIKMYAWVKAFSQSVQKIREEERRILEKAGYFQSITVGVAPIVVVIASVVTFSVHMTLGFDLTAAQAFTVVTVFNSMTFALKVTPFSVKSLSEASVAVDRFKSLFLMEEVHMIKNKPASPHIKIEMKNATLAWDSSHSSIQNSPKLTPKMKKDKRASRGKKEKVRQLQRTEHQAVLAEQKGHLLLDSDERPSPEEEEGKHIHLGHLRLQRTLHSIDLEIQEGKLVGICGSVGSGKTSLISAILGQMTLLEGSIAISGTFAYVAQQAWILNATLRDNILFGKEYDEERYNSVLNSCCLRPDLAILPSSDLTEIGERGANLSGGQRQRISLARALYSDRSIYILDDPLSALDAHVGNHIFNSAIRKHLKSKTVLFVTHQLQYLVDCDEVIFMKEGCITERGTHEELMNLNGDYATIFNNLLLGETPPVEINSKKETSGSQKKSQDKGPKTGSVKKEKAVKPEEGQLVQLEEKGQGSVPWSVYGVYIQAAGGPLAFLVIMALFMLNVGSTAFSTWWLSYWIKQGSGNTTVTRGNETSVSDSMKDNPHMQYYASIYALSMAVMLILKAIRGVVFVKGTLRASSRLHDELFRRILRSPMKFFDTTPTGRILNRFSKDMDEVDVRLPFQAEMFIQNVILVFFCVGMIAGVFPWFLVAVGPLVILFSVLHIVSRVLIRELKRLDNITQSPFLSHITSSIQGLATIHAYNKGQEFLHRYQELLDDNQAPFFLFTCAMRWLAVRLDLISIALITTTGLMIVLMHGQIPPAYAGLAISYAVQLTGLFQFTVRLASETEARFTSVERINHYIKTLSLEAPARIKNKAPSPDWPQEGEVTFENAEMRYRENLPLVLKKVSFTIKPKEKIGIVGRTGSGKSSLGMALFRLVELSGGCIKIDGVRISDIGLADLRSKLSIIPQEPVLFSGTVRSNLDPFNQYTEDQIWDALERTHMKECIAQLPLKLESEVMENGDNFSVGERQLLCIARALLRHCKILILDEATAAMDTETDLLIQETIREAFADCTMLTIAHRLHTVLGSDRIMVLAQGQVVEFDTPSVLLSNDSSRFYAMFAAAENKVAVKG

| Kd | Binder |
| --- | --- |
| 2.66 µM | CSKFRRTRPLECQDALETAARAEGLSLDASMHSQLRILDEC [MRP5 potential peptide inhibitor (M5PI)] |
| 24.1 µM | CQDALETAARAEGLSLDAS [Cys46-Ser64 peptide of hMRP5] |

More lines, now with the values behind:

| Binder | Kd |
| --- | --- |
| RTRPLECQDALETAARAEGLSLDASMHSQLR [Arg40-Arg70 peptide of hMRP5] | 50.7 µM |
| DIGKEYIIPSPGYRSVRERTS [Asp5-Ser25 peptide of hMRP5] | 24.4 µM |
| DSKFRRTRPLECQDALETAARAEGLSLDASMHSQLRILDEE [Asp35-Glu75 peptide of hMRP5] | 34.6 µM |

Source: paper PMC11156954 (2024)
